What all share (assay): cell-based or functional assay
Experiment [1] deals with IL-18 polypeptide of SEQ ID NO: 46 (E06K, K53A, S55A, M51G) (human) (UniProt Q14116).
For experiment [2], the target named is IL-18 polypeptide of SEQ ID NO: 50 (E06K, K53A, T63A) (human) (UniProt Q14116).
For experiment [3], the target named is IL-18 polypeptide of SEQ ID NO: 37 (S55A) (human) (UniProt Q14116).
Experiment [4] has as its target IL-18 polypeptide of SEQ ID NO: 34 (E06K, K53A, S55A) (human) (UniProt Q14116).
Experiment [5] addresses IL-18 polypeptide C163 (V11I, C38A, C76A, Q103K, C127A) (human) (UniProt Q14116).
For experiment [6], the target named is IL-18 polypeptide C145 (V11I, C38A, K53A, S55A, C76A, C127A) (human) (UniProt Q14116).
In experiment [7] the target is IL-18 polypeptide C155 (V11I, C38A, D40A, K53A, C76A, C127A) (human) (UniProt Q14116).
Experiment [8] has as its target IL-18 polypeptide of SEQ ID NO: 60 (E6K, C38Q, K53A) (human) (UniProt Q14116).
The target in experiment [9] is IL-18 polypeptide of SEQ ID NO: 38 (E06K) (human) (UniProt Q14116).
Experiment [10] deals with IL-18 polypeptide C143 (V11I, C38A, K53A, C76A, C127A) (human) (UniProt Q14116).
The target in experiment [11] is IL-18 polypeptide of SEQ ID NO: 31 (C38A, C76A, C127A) (human) (UniProt Q14116).
Experiment [12] deals with IL-18 polypeptide of SEQ ID NO: 36 (K53A) (human) (UniProt Q14116).
Experiment [13] has as its target IL-18 polypeptide C151 (V11I, D35A, C38A, K53A, C76A, C127A) (human) (UniProt Q14116).
The target of experiment [14] is IL-18 polypeptide of SEQ ID NO: 53 (K53A, T63A) (human) (UniProt Q14116).
Experiment [15] deals with IL-18 polypeptide of SEQ ID NO: 55 (K53A, T63A, C38S, C68S, C76S, C127S, K70C) (human) (UniProt Q14116).
Experiment [16] concerns the target IL-18 polypeptide C154 (V11I, E31A, D37A, C38A, K53A, C76A, C127A) (human) (UniProt Q14116).
Experiment [17] deals with IL-18 polypeptide C144 (V11I, C38A, K53A, T63A, C76A, C127A) (human) (UniProt Q14116).
Experiment [18] deals with IL-18 polypeptide C147 (V11I, C38A, K53A, D54A, C76A, C127A) (human) (UniProt Q14116).
In experiment [19] the target is IL-18 polypeptide C167 (V11I, C38A, C76A, S105I, C127A) (human) (UniProt Q14116).
Experiment [20] addresses IL-18 polypeptide of SEQ ID NO: 40 (E06K, S55A) (human) (UniProt Q14116).
The target of experiment [21] is IL-18 polypeptide of SEQ ID NO: 48 (C38S, C68S, C76S, C127S, K70C) (human) (UniProt Q14116).
Experiment [22] deals with IL-18 polypeptide of SEQ ID NO: 9 (E6K, C38A, K53A, C68A, D98C) (human) (UniProt Q14116).
In experiment [23] the target is IL-18 polypeptide C149 (V11I, E31A, C38A, K53A, C76A, C127A) (human) (UniProt Q14116).
IL-18 polypeptide C149 (V11I, E31A, C38A, K53A, C76A, C127A) (human), sequence (Q14116 37-193 V47I/E67A/C74A/K89A/C112A/C163A): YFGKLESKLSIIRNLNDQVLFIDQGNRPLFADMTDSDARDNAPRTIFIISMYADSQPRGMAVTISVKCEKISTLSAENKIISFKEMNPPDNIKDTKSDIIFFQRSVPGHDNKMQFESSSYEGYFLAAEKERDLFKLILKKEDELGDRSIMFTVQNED

IL-18 polypeptide C155 (V11I, C38A, D40A, K53A, C76A, C127A) (human), sequence (Q14116 37-193 V47I/C74A/D76A/K89A/C112A/C163A): as the sequence (Q14116 37-193 V47I/E67A/C74A/K89A/C112A/C163A) above, with A31E, D40A counted along it
IL-18 polypeptide of SEQ ID NO: 60 (E6K, C38Q, K53A) (human), sequence (Q14116 other isoform, or with tags, fused parts or gaps C38Q K53A C38Q K53A): as the sequence (Q14116 37-193 V47I/E67A/C74A/K89A/C112A/C163A) above, with E6K, I11V, A31E, A38Q, A76C, A127C counted along it
IL-18 polypeptide C154 (V11I, E31A, D37A, C38A, K53A, C76A, C127A) (human), sequence (Q14116 37-193 V47I/E67A/D73A/C74A/K89A/C112A/C163A): as the sequence (Q14116 37-193 V47I/E67A/C74A/K89A/C112A/C163A) above, with D37A counted along it
IL-18 polypeptide C147 (V11I, C38A, K53A, D54A, C76A, C127A) (human), sequence (Q14116 37-193 V47I/C74A/K89A/D90A/C112A/C163A): as the sequence (Q14116 37-193 V47I/E67A/C74A/K89A/C112A/C163A) above, with A31E, D54A counted along it
IL-18 polypeptide of SEQ ID NO: 50 (E06K, K53A, T63A) (human), sequence (Q14116 37-193 E42K/K89A/T99A): as the sequence (Q14116 37-193 V47I/E67A/C74A/K89A/C112A/C163A) above, with E6K, I11V, A31E, A38C, T63A, A76C, A127C counted along it
IL-18 polypeptide of SEQ ID NO: 9 (E6K, C38A, K53A, C68A, D98C) (human), sequence (Q14116 other isoform, or with tags, fused parts or gaps C38A K53A C68A D98C C38A K53A C68A D98C): as the sequence (Q14116 37-193 V47I/E67A/C74A/K89A/C112A/C163A) above, with E6K, I11V, A31E, C68A, A76C, D98C, A127C counted along it
IL-18 polypeptide C145 (V11I, C38A, K53A, S55A, C76A, C127A) (human), sequence (Q14116 37-193 V47I/C74A/K89A/S91A/C112A/C163A): as the sequence (Q14116 37-193 V47I/E67A/C74A/K89A/C112A/C163A) above, with A31E, S55A counted along it
IL-18 polypeptide of SEQ ID NO: 53 (K53A, T63A) (human), sequence (Q14116 37-193 K89A/T99A): as the sequence (Q14116 37-193 V47I/E67A/C74A/K89A/C112A/C163A) above, with I11V, A31E, A38C, T63A, A76C, A127C counted along it
IL-18 polypeptide of SEQ ID NO: 34 (E06K, K53A, S55A) (human), sequence (Q14116 37-193 E42K/K89A/S91A): as the sequence (Q14116 37-193 V47I/E67A/C74A/K89A/C112A/C163A) above, with E6K, I11V, A31E, A38C, S55A, A76C, A127C counted along it
IL-18 polypeptide of SEQ ID NO: 40 (E06K, S55A) (human), sequence (Q14116 37-193 E42K/S91A): as the sequence (Q14116 37-193 V47I/E67A/C74A/K89A/C112A/C163A) above, with E6K, I11V, A31E, A38C, A53K, S55A, A76C, A127C counted along it
IL-18 polypeptide C144 (V11I, C38A, K53A, T63A, C76A, C127A) (human), sequence (Q14116 37-193 V47I/C74A/K89A/T99A/C112A/C163A): as the sequence (Q14116 37-193 V47I/E67A/C74A/K89A/C112A/C163A) above, with A31E, T63A counted along it
IL-18 polypeptide of SEQ ID NO: 38 (E06K) (human), sequence (Q14116 37-193 E42K): as the sequence (Q14116 37-193 V47I/E67A/C74A/K89A/C112A/C163A) above, with E6K, I11V, A31E, A38C, A53K, A76C, A127C counted along it
IL-18 polypeptide of SEQ ID NO: 37 (S55A) (human), sequence (Q14116 37-193 S91A): as the sequence (Q14116 37-193 V47I/E67A/C74A/K89A/C112A/C163A) above, with I11V, A31E, A38C, A53K, S55A, A76C, A127C counted along it
IL-18 polypeptide of SEQ ID NO: 31 (C38A, C76A, C127A) (human), sequence (Q14116 37-193 C74A/C112A/C163A): as the sequence (Q14116 37-193 V47I/E67A/C74A/K89A/C112A/C163A) above, with I11V, A31E, A53K counted along it
IL-18 polypeptide C143 (V11I, C38A, K53A, C76A, C127A) (human), sequence (Q14116 37-193 V47I/C74A/K89A/C112A/C163A): as the sequence (Q14116 37-193 V47I/E67A/C74A/K89A/C112A/C163A) above, with A31E counted along it
IL-18 polypeptide of SEQ ID NO: 36 (K53A) (human), sequence (Q14116 37-193 K89A): as the sequence (Q14116 37-193 V47I/E67A/C74A/K89A/C112A/C163A) above, with I11V, A31E, A38C, A76C, A127C counted along it
IL-18 polypeptide C151 (V11I, D35A, C38A, K53A, C76A, C127A) (human), sequence (Q14116 37-193 V47I/D71A/C74A/K89A/C112A/C163A): as the sequence (Q14116 37-193 V47I/E67A/C74A/K89A/C112A/C163A) above, with A31E, D35A counted along it
IL-18 polypeptide C167 (V11I, C38A, C76A, S105I, C127A) (human), sequence (Q14116 37-193 V47I/C74A/C112A/S141I/C163A): as the sequence (Q14116 37-193 V47I/E67A/C74A/K89A/C112A/C163A) above, with A31E, A53K, S105I counted along it
IL-18 polypeptide C163 (V11I, C38A, C76A, Q103K, C127A) (human), sequence (Q14116 37-193 V47I/C74A/C112A/Q139K/C163A): as the sequence (Q14116 37-193 V47I/E67A/C74A/K89A/C112A/C163A) above, with A31E, A53K, Q103K counted along it
IL-18 polypeptide of SEQ ID NO: 55 (K53A, T63A, C38S, C68S, C76S, C127S, K70C) (human), sequence (Q14116 37-193 C74S/K89A/T99A/C104S/K106C/C112S/C163S): as the sequence (Q14116 37-193 V47I/E67A/C74A/K89A/C112A/C163A) above, with I11V, A31E, A38S, T63A, C68S, K70C, A76S, A127S counted along it
IL-18 polypeptide of SEQ ID NO: 48 (C38S, C68S, C76S, C127S, K70C) (human), sequence (Q14116 37-193 C74S/C104S/K106C/C112S/C163S): as the sequence (Q14116 37-193 V47I/E67A/C74A/K89A/C112A/C163A) above, with I11V, A31E, A38S, A53K, C68S, K70C, A76S, A127S counted along it
IL-18 polypeptide of SEQ ID NO: 46 (E06K, K53A, S55A, M51G) (human), sequence (Q14116 37-193 E42K/M87G/K89A/S91A): as the sequence (Q14116 37-193 V47I/E67A/C74A/K89A/C112A/C163A) above, with E6K, I11V, A31E, A38C, M51G, S55A, A76C, A127C counted along it

As for “Fc fused human IL-18 binding protein isoform a (IL-18BPa; R&D systems, Cat #119-BP) (from UniProt O95998 31-194) (Fc fusion)”, the IC50 of inhibition by IL-18BP of IFNγ stimulation in NK92 cells in experiment [1] is 0.189 nM; in experiment [2], > 1000 nM; in [3], 4.46 nM; in experiment [4], 229 nM; in [5] it was 0.823 nM; in experiment [6], 10.2 nM. In addition, the IC50 of inhibition by IL-18BP of IFNγ stimulation in NK92 cells in experiment [7] came out at 3.23 nM; in experiment [8], 780 nM; in [9] it was 7.79 nM; in experiment [10], 1.62 nM; in experiment [12], 27.3 nM; in experiment [13] it was 3.62 nM. The IC50 of inhibition by IL-18BP of IFNγ stimulation in NK92 cells in experiment [14] was 18.2 nM; in [15] it was > 1000 nM; in [16] it was 3.71 nM; in experiment [17], 7.52 nM; in experiment [18], 47.6 nM; in experiment [19], 0.809 nM. For the same substance, the IC50 of inhibition by IL-18BP of IFNγ stimulation in NK92 cells in experiment [20] turned out to be 15 nM; in [21] it was 0.114 nM; in [22], 961 nM; in [23], 1.17 nM. This substance also returned an IC50 of IL-18BP-mediated inhibition of IFNγ secretion by NK92 cells in experiment [11] of 0.282 nM.

The values above are taken from patent publication US20250186597A1, “TARGETED IMMUNE ACTIVATION WITH IL-18 IMMUNOCYTOKINES” (BRIGHT PEAK THERAPEUTICS AG, priority 2023, published 2025).
